# Reference: paper PMC4135234
# Where two headings read alike, the source gives them in different places.
# B1: MSI FP oligo (Cy3-C9-Oligo #5) (ssRNA)
# RNA: GUAGUAGU
# modifications: 5' C9 spacer
# B2: MSI Oligo #5 (unlabeled MSI FP oligo) (ssRNA)
# RNA: GUAGUAGU
# How the values were obtained:
# GST-FLAG-p53 = GST-FLAG-p53 (human, UniProt P04637 1-393); test: fluorescence polarization
# GST-FLAG-LIN28A = molecular target: T1, GST-FLAG-LIN28A (human, UniProt Q9H9Z2 1-209); test: competition
# T1 sequence: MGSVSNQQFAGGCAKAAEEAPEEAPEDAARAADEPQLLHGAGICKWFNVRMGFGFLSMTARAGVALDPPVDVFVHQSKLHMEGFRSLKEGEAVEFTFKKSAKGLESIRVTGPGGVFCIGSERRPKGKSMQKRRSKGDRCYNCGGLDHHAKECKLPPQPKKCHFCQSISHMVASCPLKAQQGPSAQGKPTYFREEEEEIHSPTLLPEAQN
# GST-FLAG-MSI2 [1] = molecular target: T2, GST-FLAG-MSI2 (human, UniProt Q96DH6 1-328); test: competition
# T2 sequence (Q96DH6 whole entry): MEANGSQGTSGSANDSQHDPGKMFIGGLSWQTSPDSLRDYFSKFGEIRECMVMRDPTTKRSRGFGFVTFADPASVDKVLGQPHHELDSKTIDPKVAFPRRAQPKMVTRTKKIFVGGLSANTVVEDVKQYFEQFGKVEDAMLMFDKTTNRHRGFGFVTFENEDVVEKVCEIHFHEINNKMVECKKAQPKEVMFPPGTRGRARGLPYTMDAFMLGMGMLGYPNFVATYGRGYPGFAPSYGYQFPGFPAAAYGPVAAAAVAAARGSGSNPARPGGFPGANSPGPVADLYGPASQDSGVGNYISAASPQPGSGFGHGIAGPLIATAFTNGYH
# GST-FLAG-MSI2 [2] = molecular target: T2, GST-FLAG-MSI2; test: competition; remark: listed apart in the source
# GST-FLAG-MSI1 = GST-FLAG-MSI1 (human, UniProt O43347 1-362); test: competition
# GST-FLAG-MSI1, sequence (O43347 whole entry): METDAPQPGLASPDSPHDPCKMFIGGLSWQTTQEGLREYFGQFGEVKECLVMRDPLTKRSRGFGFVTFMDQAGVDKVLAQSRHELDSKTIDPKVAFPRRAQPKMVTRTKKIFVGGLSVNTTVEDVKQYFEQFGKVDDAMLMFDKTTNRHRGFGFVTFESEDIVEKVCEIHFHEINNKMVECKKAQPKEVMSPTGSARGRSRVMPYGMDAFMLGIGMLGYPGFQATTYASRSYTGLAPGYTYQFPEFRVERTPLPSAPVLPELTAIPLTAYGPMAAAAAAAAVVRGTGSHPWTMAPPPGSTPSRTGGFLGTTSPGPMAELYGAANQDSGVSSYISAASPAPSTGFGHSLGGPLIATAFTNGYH
# GST-FLAG-p53, sequence (P04637 whole entry): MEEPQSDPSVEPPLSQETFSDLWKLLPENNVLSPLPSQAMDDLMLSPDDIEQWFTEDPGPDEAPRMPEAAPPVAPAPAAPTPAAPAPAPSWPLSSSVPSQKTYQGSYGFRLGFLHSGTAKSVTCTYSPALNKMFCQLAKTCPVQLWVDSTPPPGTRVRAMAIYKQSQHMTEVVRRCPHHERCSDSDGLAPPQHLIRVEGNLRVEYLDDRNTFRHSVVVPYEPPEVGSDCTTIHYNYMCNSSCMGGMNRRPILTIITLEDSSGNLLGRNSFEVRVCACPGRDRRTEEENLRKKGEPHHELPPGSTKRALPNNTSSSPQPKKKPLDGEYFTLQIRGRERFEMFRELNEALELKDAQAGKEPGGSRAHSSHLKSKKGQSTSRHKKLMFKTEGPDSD
Binder,binding result (GST-FLAG-p53),IC50 (GST-FLAG-LIN28A),IC50 (GST-FLAG-MSI2 [1]),IC50 (GST-FLAG-MSI2 [2]),IC50 (GST-FLAG-MSI1)
B1,no binding,,,,
B2,,0.5 µM,1.3 ± 0.2 µM,4.6 µM,5.6 µM
